Test [1] concerns the target recombinant alpha tubulin of Plasmodium falciparum (Plasmodium falciparum). The test is described as follows: MST.
Test [2] shares this target. The experiment in a line: MST. This is another data set of the same source.

What is called Kd is the concentration at which binding is half-saturated.

Where two headings read alike, the source gives them in different places.

B1: recombinant Plasmodium falciparum cold shock protein PfCoSP (PF3D7_0109600) (natural protein)
chain: MLRRKIHIHFNSYKKHFFSQLINKEKHDKITGNVIMFDKRKGYGFIKPNDGGPDIFVHYTDICQSRTFEVTNEEKKKLAWNANMDITQKKEEYNFEYDNNNNNNNNKHNKKKEEIKKEFKYLVPGERVKFSVIYDEKSNSSKAINVDYID
B1: the figures for the Kd in test [1] and in test [2] were 210 nM and 274 nM, respectively.
